For 2 variants, response results are on record in PMC4466390, “Canonical and Noncanonical Sites Determine NPT2A Binding Selectivity to NHERF1 PDZ1” (PLoS ONE, 2015).

B1: NHERF1 PDZ1 (11–120) [human] / rhodamine-labeled 22-residue carboxy-terminal NPT2A peptide [modified: 5-(and 6)-carboxytetramethylrhodamine (rhodamine label), coupled to the peptidyl resin after synthesis; 5-(and … (parent)
chain 1: LPRLCCLEKGPNGYGFHLHGEKGKLGQYIRLVEPGSPAEKAGLLAGDRLVEVNGENVEKETHQQVVSRIRAALNAVRLLVVDPETDEQLQKLGVQVREELLRAQEAPGQA
chain 2: ELPPATPSPRLALPAHHNATRL

Variants of B1 are the subject of this assay. In words: fluorescence polarisation. As to conditions: with rhodamine-labeled 22-residue carboxy-terminal NPT2A peptide [modified: 5-(and 6)-carboxytetramethylrhodamine (rhodamine label), labeled NPT2A peptide 1 µM, read at the highest PDZ1 concentration, est. ~120 µM, parent: 0.11, read off a plot. For orientation: Polarisation of emitted light reports the rotation of a fluorescent probe.
Regarding chain 1 LPRLCCLEKGPNGYGFHLHGEKGKLGQYIRLVDPGSPAEKAGLLAGDRLVEVNGENVEKETHQQVVSRIRAALNAVRLLVVDPETDEQLQKLGVQVREELLRAQEAPGQA [chain 1 E33D], the response was determined as 0.096.

In the case of chain 1 LPRLCCLEKGPNGYGFNLHGEKGKLGQYIRLVEPGSPAEKAGLLAGDRLVEVNGENVEKETHQQVVSRIRAALNAVRLLVVDPETDEQLQKLGVQVREELLRAQEAPGQA [chain 1 H17N], the response stood at 0.1.
